# Assay results from the nanobody polyreactivity screen of Harvey et al. (2022).
# Test: yeast display, Sf9 membrane polyspecificity reagent, FACS + sequencing; frameworks hold sequencing errors
# Procedure, shortened: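 Nanobodies came from a synthetic yeast display library in Saccharomyces cerevisiae BJ5465, induced with galactose for 36–48 hours and stained for 1 hour at 4 °C with 10% biotinylated, detergent-solubilized Sf9 membrane reagent. Cells were enriched on streptavidin microbeads and then FACS-sorted, with low and high (top ~1%) gates set on anti-HA fluorescence for expression and streptavidin fluorescence for reagent binding. Each polyreactivity label reflects the gate a clone came from. Genes were amplified by colony PCR, sequenced by MiSeq 2 × 250 and filtered by CDR length.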
sequence,measurement,value
QVQLVESGGGVVQAGGSLRLSCAASGIIFDYYAMGLYRQAPGKERELVAAITSGGSTYYADSVKGRFTISRDNAKNSVYFQMKSLKAEDTAVYFCAAVYPRVRYDYWGQGTQVNVSS,polyreactivity (PSR sort gate),high polyreactivity
QVQLVESGGGVVQAGGSLRLSCAASGITFQGDDMGWYRQAPGKEREFVAAITWNGGSTYYADSVKGRFTISRDHAKNTVFLQMNSLKPEDTAVYYCAADWSITYGDGGYWGQGTQVTVSS,polyreactivity (PSR sort gate),low polyreactivity
QVQLVESGGGVVQAGGSLRLSCAASGRIFHDYAMGWYRQAPGKERELVAGMTSGVRTYYADSVKGRFTISRDNEKNTVYLQMNSLKPEDTAVYYCARRLSPLYDYDYWGQGTQVTVSP,polyreactivity (PSR sort gate),low polyreactivity
QVQLVESGGGVVQAGGSLRLSCAASGRIFRGYVMGWYRQAPRKERELVAAITWSGANTYYADSVKGRFTISRDNAMNTVYLQMNSLKPEDSAVYYCAATVSYWSTKEDDYWGLGTQVTVSS,polyreactivity (PSR sort gate),low polyreactivity
QVQLVESGGGVVQAGGSLRLSCAASGRIFVSNPMGWYRQAPGKERELVAAITSGGRTNYADSVKGRFTISRDNAKNTVYLQMNSLKPEDTAVYYCNARGYSSRGFRRYSTKYDYWGQGTQVTVSS,polyreactivity (PSR sort gate),high polyreactivity
QVQLVESGGGVVQAGGSLRLSCAASGRTFSYYAMGWYRQSPGKERELVATISYSTGNTNYADSVKGRFTISRDNAKNTVYLQMNSLKPEDTAVYYCAADFSPFVGETYWKYDYWGQGTQVTVSS,polyreactivity (PSR sort gate),low polyreactivity
QVQLVESGGGVVQAGGSLRLSCAASGRTFWRYAMGWYRQAPGKERELVAAITSGGGSTYYADSVKGRFTISRDNAKNTVYLQMNSLKPEDTAVYYCNRAGRGSSFKGDYWGQGTQVTVSS,polyreactivity (PSR sort gate),high polyreactivity
QVQLVESGGGVVQAGGSLRLSCAASGRTIDPKAMGWYRQAPGKERELVAAITRTGVRTYYADSVKGRFTISRDNAKNTVYLQLNILKPEYTAVYYCNRYGARSNDYWGQGTQVSVSS,polyreactivity (PSR sort gate),low polyreactivity
QVQLVESGGGVVQAGGSLRLSCAASGRTIWSNAMGWYRQAPGKERELVAAISRTGGRTYYADSVKGRFTISRDNAKNTVYLQMNSLKREDTAVYYCATGSGVYDYWGQGTQLTVSS,polyreactivity (PSR sort gate),high polyreactivity
QVQLVESGGGVVQAGGSLRLSCAASGSTAIYYTMGWYRQAPGKERELVAYADSVKGRFTISRDNAKTTVYLQMNSLKPEDTAVYSCAAPRTYYSELTSPYDYWGQGTQVTVSS,polyreactivity (PSR sort gate),low polyreactivity
QVQLVESGGGVVQAGGSLRLSCAASGSTFYINTMGWSRPAPGKDRELVAAISWTGGRTYYAASVKGRFTISRANAKNTVYLQMNSLKPEDTAVYYCAAYYNIPDRRRVGYDYWGQGTQVTVSS,polyreactivity (PSR sort gate),high polyreactivity
QVQLVESGGGVVQAGGSLRLSCAASGSTIYRYAMGWYRQAPGKEREFVPAITRTTARTYYADSVKGRFTFSRDNAKNTVYLQMNSLKPEDTAVYYCAADLYSWTWSGFRQYDSWGQGTQVTVSS,polyreactivity (PSR sort gate),high polyreactivity
QVQLVESGGGVVQAGGSLRLSCAASVRTFPGYAMGWYRQAPGKERELVAAISWSGTSTYYADSVKGRFTISRDYAKNTVYLQMNSLKPEYTAVYDCNKVYTYSAPYYYWGQGTQVTVSS,polyreactivity (PSR sort gate),high polyreactivity
QVQLVESGGGVVQAGGSLRLSCPASGSIFETYVMGWYRPAPGIERELVAAINSGGSTNYADSVKGRFTISRDNAKNTVYLQMNRLKPEDTAVYYCNADWFTPAQPWYRSFIRYDYWGQGTQVTVSS,polyreactivity (PSR sort gate),low polyreactivity
QVQLVESGGGVVQAGGSLSLSCAASGNTFPVYAMGWYRQASAKERELVATITSGGSTNYADSVKGRFTISRDNAKNTVYLQMNSLKPEDTAVYYCARRAVYSKRRYDYWGQGTQVTVSS,polyreactivity (PSR sort gate),low polyreactivity
QVQLVESGGGVVQARGSRRLSCAASGRSYANAMGWYRQAPGKERELVAAITKNGGGTYYADSVKGRFTISRDNAKNTVYLQMNSLKPEDTAVYYCAASYSRWYYTAKQQEFDYWGQGTQVTVSS,polyreactivity (PSR sort gate),high polyreactivity
QVQLVESGGPLVQSGGSLRIICPASGSTFRYYSMGWYRQAPGKERELVAAISYGGGITNYADSVKGRLTISRDNAKNTVYLQMNSLKPEDTAVYYCAAYDRITRYDYWGQGTQVTVSS,polyreactivity (PSR sort gate),high polyreactivity
QVQLVESGGRIVQAGGSLRLRCAASGRTLLRYAMGWSRQAPGKERELVAAISSSGGRTYYADSVKGRFTISRDNEKNTVYLQMNSLKPEDTAVYYCAAKSSYVGHDYWGQGTQVTVSS,polyreactivity (PSR sort gate),high polyreactivity
QVQLVESGGRIVQAGGSLRLSCAASGRLFDRYAMGWYRQAPGQERELVAAISWSAGSTYYADSVKGRFTISRDNAKNTVYLQMNSLKPEDTAVYYCAVPARGTFLLRDGGRAEFDYWGQGTQVTVSS,polyreactivity (PSR sort gate),low polyreactivity
QVQLVESGGRIVQAGGSLRLSCAASGRTFLYNVMGWSRQAPGKERELVAAITSGGRTYYADSVKGRFTISRDNAKNTVYLQMNSLKPEDTAVYYCNADRQLYIYRYDYWGQGTQVTVSS,polyreactivity (PSR sort gate),low polyreactivity
QVQLVESGGRLVKAGASHRLSCAASAITCGRNTRGWYRQAPGKARELVAAIDSGVNTYADSVKGRFTISRDNAKYTVYLQMTSLKPEDTSVYYWAFVGGEFSSYGYWGLGTQVTVSS,polyreactivity (PSR sort gate),low polyreactivity
QVQLVESGGRLVQAGASLRLSCAASASIFASNAMGWYRHEPGKERELVAAINSGDSTNYADSVKGRFTISRDNAKNTVYLQMNSLKPEDTAVYYCARGLEERYDYWGQGTQVTVSS,polyreactivity (PSR sort gate),low polyreactivity
QVQLVESGGRLVQAGASLRLSCDASGRIFQWYAIGWYRQAPGKVRELVAAITSGSSTYYADSVKGRFTISRDNAKNSVYLQMNSLKPEDTAVYYCAAEAVYVSSWYDDYYYFRYDYWGQGTQVTVSS,polyreactivity (PSR sort gate),high polyreactivity
QVQLVESGGRLVQAGCSLRLSCAASGSIFDVYAMGWYRPAPGKERELVAAISRGGRTYYADSVKGRFTISRDNAKNTVYLQMNSLKPEDTAVYYCAAVTRLDGNMDYWGQGTQVTVSS,polyreactivity (PSR sort gate),high polyreactivity
QVQLVESGGRLVQAGFSLRLSCAASGSTFRWYALGWYRQAPGIESELVAAITSGGRTYYADSVKGRFTISRDNAKNPVYLQMSSLKPEATAGYYCAAQYADRGKRDYWGQGTQVTGSS,polyreactivity (PSR sort gate),high polyreactivity
QVQLVESGGRLVQAGGILRLSCAASGFIFLSYAMGWYRQAPGKERELVAAITSNGGSTYYADSVKGRFTISRDNAKNTVYLQMNSLKPEDTSVYYCAARFSQGKVRMGYWGQGTQVTVSS,polyreactivity (PSR sort gate),high polyreactivity
QVQLVESGGRLVQAGGILRLSCAASGRIFSANAMGWYRQAPGKERELVAAITSSGGSTYYADSVKGRFTISRDNAKNTVYLQMNSLKPEDTAVYYCAAESAAYGGGTSDAGYESDYLGQGTQVTVSS,polyreactivity (PSR sort gate),low polyreactivity
QVQLVESGGRLVQAGGSIRLSCAASGSTLNVNAMGGYRQAPGKERELVAAITSGGSTYYADSVKGRFTISRDNAKNTVYLQMNSLKPEDTAVYYCNKRRSWRPTYPIGGSGFYYWGQGTQVTVSS,polyreactivity (PSR sort gate),low polyreactivity
QVQLVESGGRLVQAGGSLRISSAASGFIFYKYTMGWYRQAPGKERELVAAITRSGGSTYYADSVKGRCTISRDNAKNTVYLQMNSLKPEDTAVYYCAATQSFRRNYDYWGQGTQVTVSS,polyreactivity (PSR sort gate),high polyreactivity
QVQLVESGGRLVQAGGSLRLLGAASGRIIYYNAMGWYRPAPGKERELVAAISSIGGSTYADSVKGRFTISRDNAKNTVYLQMNSLKPEDTAVYYCAADGFKRLYTQVAHVRYDYWGQGTQVTVSS,polyreactivity (PSR sort gate),low polyreactivity
QVQLVESGGRLVQAGGSLRLSCAAAAITFYLYAMGRYRQAPGKERELVAAISSSGGSTYYADSVKGRFTISRDNAKNTVYLQINSLKPEDTAVYYCNARRRTVPYRYDYWGQGTQVTVSS,polyreactivity (PSR sort gate),high polyreactivity
QVQLVESGGRLVQAGGSLRLSCAASGFIFRSYAMGWYRQAPGKERELVAAISSRGGSTSYADSVKGRFTISRDNAKNTVYLQLNSLKPEDTAVYYCNAYQYPGYGNNYWGQGSQVTVSS,polyreactivity (PSR sort gate),high polyreactivity
QVQLVESGGRLVQAGGSLRLSCAASGFIFRYNAMGWYRQAPGKERELVARITSSGGTTYYADSVKGRFTISRDSSKNTVYLQMNSLKPEDTAVYYCNARKVRYPYGWYDYWGQGTQVTVSS,polyreactivity (PSR sort gate),high polyreactivity
QVQLVESGGRLVQAGGSLRLSCAASGFSFGGNVIGWYRQAPGKDREFVAAITDGDGSTYYADSVKGRFTISRDNAKNTVYLQMNSLKPEDTSVYYCAGDVYYADVYPVEYWGQGTQVTVSS,polyreactivity (PSR sort gate),high polyreactivity
QVQLVESGGRLVQAGGSLRLSCAASGFTFRRYAMGWYRQAPGKERELVAVITTAGSTNYADSVKGRFTISRDNAKNTVYLQMNTLKPEDTAVYYCATDNGTRKRRYDYWGQGTQVTVSS,polyreactivity (PSR sort gate),low polyreactivity
QVQLVESGGRLVQAGGSLRLSCAASGFTFRYYDMRWYRPAPGKVRELVAAISSGGSTDYADSVKGRFTISRDNAKNTVYLQMNSLKPEDTAVYYCAADWWVVYTYDYWGRGTQVTVSS,polyreactivity (PSR sort gate),low polyreactivity
QVQLVESGGRLVQAGGSLRLSCAASGFTFSHYAMGWYRQAPGKERELVAAISGRGGSTYYADSVKGRFTISRDNAKNTVYLPMNSLKPEDTAVYYCAARPSTYYTGHDYWGQGTQVTVSS,polyreactivity (PSR sort gate),high polyreactivity
QVQLVESGGRLVQAGGSLRLSCAASGFTFSSYAMGWYRQAPGKERELVAAISTRCGSTYYADSVKGRFTISRDNAKNTVYLQMNSLKPEDTAVYYCATGCRGGRRYEYWGQGTQVTVSS,polyreactivity (PSR sort gate),low polyreactivity
QVQLVESGGRLVQAGGSLRLSCAASGGIIRGYAMGWYRQAPGKEWELVATIRSSGRTNYADSVKGRFTISRDNEKNTVYFQMNSLKQEDTAVYYCAAVVRQYGFDYWGQGTQVTVSS,polyreactivity (PSR sort gate),low polyreactivity
QVQLVESGGRLVQAGGSLRLSCAASGGTFRVYAMGWNRQAPGKEIEFVAAISAHGGRTYYADSVKGRFTISRDNAQNTVYLQLNSLKPEDTAVYYFYNRLPNSQDGTSAHYTYYSWGQGTQVTVSS,polyreactivity (PSR sort gate),low polyreactivity
QVQLVESGGRLVQAGGSLRLSCAASGIIFPYNTMGWYRQSPGKERELVASIDDGGSTNYADSVKGRFTISRDNAKNTVYLQMNSLKPEDTAVYYCNADLFFIYVRQPGYDYWGQGTQVTVSS,polyreactivity (PSR sort gate),low polyreactivity
QVQLVESGGRLVQAGGSLRLSCAASGITFDLYDMGWYRQAPGKVRELVAAITDADSTYYADSVKGRFTMSRDNEKNTVKLQMTSLIPEDTAVYYCAADFFYSVYSGHYDYWGQGTQVTVSS,polyreactivity (PSR sort gate),low polyreactivity
QVQLVESGGRLVQAGGSLRLSCAASGITFLKYALGWYRQAPGKERELVAAISRRGGSTYYADSVKGRFTISRDNAMNTVYLEMNSLKPSDTAVYYCAARTVRGTWSQNDYCGQGTQVTVSS,polyreactivity (PSR sort gate),low polyreactivity
